Consider three substances from article PMC9132103.

Assay [1] deals with human IL-10Rβ extracellular domain (residues 20-220), biotinylated, from Hi5 cells (human) (UniProt Q08334).
Assay [2] has as its target Clone 5.1 (super-10) in the presence of IL-10Rα ECD (UniProt P22301).
Assay [3] has as its target Clone 5.1 (super-10), affinity-matured mono-IL-10 clone (UniProt P22301).

pKd: −log10 of the molar value.

Chain of human IL-10Rβ extracellular domain (residues 20-220), biotinylated, from Hi5 cells (human) (Q08334 20-220): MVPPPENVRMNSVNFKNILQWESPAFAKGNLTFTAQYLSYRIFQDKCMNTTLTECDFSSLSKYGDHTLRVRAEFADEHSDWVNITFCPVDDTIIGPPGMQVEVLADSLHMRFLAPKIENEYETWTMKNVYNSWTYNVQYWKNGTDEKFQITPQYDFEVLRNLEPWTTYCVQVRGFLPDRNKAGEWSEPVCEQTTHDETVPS
Chain of human IL-10Rβ extracellular domain (residues 20-220), biotinylated, from Hi5 cells (Q08334 20-220): as above

“IL-10 D25A/E96A (10-DE) (from UniProt P22301 19-178) (ligand)” showed a phospho-STAT3 by flow cytometry, YT-1 cells, relative to WT IL-10 in assay [1] of 50%.

On to “IL-10 D25K (from UniProt P22301 19-178) (ligand)”, for which the phospho-STAT3 by flow cytometry, YT-1 cells, relative to WT IL-10 in assay [1] turned out to be 50%. In the case of “human IL-10Rβ extracellular domain (residues 20-220), biotinylated, from Hi5 cells (from UniProt Q08334 20-220) (receptor)”, the results for the negative-log Kd (pKd) in assay [2] and in assay [3] were 7.52 and 7.15, respectively.

The pKd is the Kd on a negative log10 scale, so that one unit is a factor of ten.
